Square brackets hold non-standard residues; d marks the D form. GABA = NCCCC(=O)O
Columns and labels:
Experiment in all cases: peptide library pulldown on immobilized Nb, LC-MS of supernatant; ratio vs GFP-Nb control (1 = not captured, 0 = captured)
[1] = biological target: T1, BC2T Q11S library peptide (human)
T1 peptide: Ac-PDRKAAVSHWSQ-NH2
How it was run: (§1)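 Unbound peptide left in supernatant after 1 h pulldown in PBS/0.01% CHAPS measured by reversed-phase LC-MS (8–30% eluent B gradient, 20 min).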

[2] = biological target: T2, BC2T Q11W library peptide (human)
T2 peptide: Ac-PDRKAAVSHWWQ-NH2
How it was run: as §1

BC2T S8H library peptide = biological target: T3, BC2T S8H library peptide (human)
T3 construct: also called BC2TS8X: H
T3 peptide: Ac-PDRKAAVHHWQQ-NH2
How it was run: as §1

BC2T S8A library peptide = biological target: T4, BC2T S8A library peptide (human)
T4 construct: also called BC2TS8X: A
T4 peptide: Ac-PDRKAAVAHWQQ-NH2
How it was run: as §1

[3] = biological target: T5, BC2T Q12E library peptide (human)
T5 peptide: Ac-PDRKAAVSHWQE-NH2
How it was run: as §1

BC2T H9W library peptide = biological target: T6, BC2T H9W library peptide (human)
T6 peptide: Ac-PDRKAAVSWWQQ-NH2
How it was run: as §1

BC2T H9Q library peptide = biological target: T7, BC2T H9Q library peptide (human)
T7 peptide: Ac-PDRKAAVSQWQQ-NH2
How it was run: as §1

[4] = biological target: T8, BC2T Q12F library peptide (human)
T8 peptide: Ac-PDRKAAVSHWQF-NH2
How it was run: as §1

[5] = biological target: T9, BC2T W10S library peptide (human)
T9 construct: also called BC2TW10X: S
T9 peptide: Ac-PDRKAAVSHSQQ-NH2
How it was run: as §1

BC2T S8D library peptide = biological target: T10, BC2T S8D library peptide (human)
T10 construct: also called BC2TS8X: D
T10 peptide: Ac-PDRKAAVDHWQQ-NH2
How it was run: as §1

BC2T S8Q library peptide = biological target: T11, BC2T S8Q library peptide (human)
T11 construct: also called BC2TS8X: Q
T11 peptide: Ac-PDRKAAVQHWQQ-NH2
How it was run: as §1

[6] = biological target: T12, BC2T W10Q library peptide (human)
T12 construct: also called BC2TW10X: Q
T12 peptide: Ac-PDRKAAVSHQQQ-NH2
How it was run: as §1

BC2T H9N library peptide = biological target: T13, BC2T H9N library peptide (human)
T13 peptide: Ac-PDRKAAVSNWQQ-NH2
How it was run: as §1

BC2T H9D library peptide = biological target: T14, BC2T H9D library peptide (human)
T14 peptide: Ac-PDRKAAVSDWQQ-NH2
How it was run: as §1

BC2T S8P library peptide = biological target: T15, BC2T S8P library peptide (human)
T15 construct: also called BC2TS8X: P
T15 peptide: Ac-PDRKAAVPHWQQ-NH2
How it was run: as §1

BC2T H9R library peptide = biological target: T16, BC2T H9R library peptide (human)
T16 peptide: Ac-PDRKAAVSRWQQ-NH2
How it was run: as §1

[7] = biological target: T17, BC2T W10P library peptide (human)
T17 construct: also called BC2TW10X: P
T17 peptide: Ac-PDRKAAVSHPQQ-NH2
How it was run: as §1

[8] = biological target: T18, BC2T Q11C* library peptide (human, SMILES …)
T18 construct: also called C(Abu)
T18 peptide: Ac-PDRKAAVSHW[GABA]Q-NH2
How it was run: as §1

[9] = biological target: T19, BC2T W10G library peptide (human)
T19 construct: also called BC2TW10X: G
T19 peptide: Ac-PDRKAAVSHGQQ-NH2
How it was run: as §1

[10] = biological target: T20, BC2T Q12P library peptide (human)
T20 peptide: Ac-PDRKAAVSHWQP-NH2
How it was run: as §1

ratio [1]: 0.2 | ratio [2]: 0.1 | ratio (BC2T S8H library peptide): 0.9 | ratio (BC2T S8A library peptide): 0.1 | ratio [3]: 0.6 | ratio (BC2T H9W library peptide): 0.1 | ratio (BC2T H9Q library peptide): 0.3 | ratio [4]: 0.3 | ratio [5]: 1.2 | ratio (BC2T S8D library peptide): 1 | ratio (BC2T S8Q library peptide): 0.9 | ratio [6]: 1.2 | ratio (BC2T H9N library peptide): 0.2 | ratio (BC2T H9D library peptide): 0.4 | ratio (BC2T S8P library peptide): 1 | ratio (BC2T H9R library peptide): 0.1 | ratio [7]: 1.1 | ratio [8]: 0.2 | ratio [9]: 1.2 | ratio [10]: 0.1
B1: BC2-Nb(R106E) (VHH)
VHH: QVQLVESGGGLVQPGGSLTLSCTASGFTLDHYDIGWFRQAPGKEREGVSCINNSDDDTYYADSVKGRFTIFMDNAKDTVYLQMNSLKPEDTAIYYCAEARGCKRGEYEYDFWGQGTQVTVSS
notes: Headlock mutant; immobilized on beads in the library pulldown
